# From patent publication US20260008852A1 (CRYSTAL BIOSCIENCE, published 2026)
# Where a chain is given by its changes, count along the chain named.
# T1: B7-H3 on B7-H3-expressing CHO cells (Genescript) (UniProt Q5ZPR3 29-534, limits assumed)
# T1 construct: whole, on cells; also called CHO-K1/B7-H3; MFI B7-H3
# T1 sequence (looked up): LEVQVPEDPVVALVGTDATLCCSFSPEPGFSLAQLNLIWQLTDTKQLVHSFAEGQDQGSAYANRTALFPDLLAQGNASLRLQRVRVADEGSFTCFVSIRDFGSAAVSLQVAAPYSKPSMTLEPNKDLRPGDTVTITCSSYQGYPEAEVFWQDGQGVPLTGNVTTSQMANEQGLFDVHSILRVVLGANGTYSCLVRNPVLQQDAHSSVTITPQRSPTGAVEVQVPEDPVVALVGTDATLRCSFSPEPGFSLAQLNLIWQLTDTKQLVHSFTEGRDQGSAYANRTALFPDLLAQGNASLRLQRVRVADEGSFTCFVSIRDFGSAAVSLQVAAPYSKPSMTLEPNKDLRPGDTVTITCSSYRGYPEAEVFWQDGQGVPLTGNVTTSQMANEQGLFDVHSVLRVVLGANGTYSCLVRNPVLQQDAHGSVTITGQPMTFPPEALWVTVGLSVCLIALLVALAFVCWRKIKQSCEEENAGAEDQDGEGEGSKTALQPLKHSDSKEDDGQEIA
# T2: His-tagged human B7-H3 (human, UniProt Q5ZPR3-2 29-245, limits assumed)
# T2 construct: Bought His-tagged protein coated on the ELISA plate; also called hu B7-H3; CD276
# T2 sequence (looked up): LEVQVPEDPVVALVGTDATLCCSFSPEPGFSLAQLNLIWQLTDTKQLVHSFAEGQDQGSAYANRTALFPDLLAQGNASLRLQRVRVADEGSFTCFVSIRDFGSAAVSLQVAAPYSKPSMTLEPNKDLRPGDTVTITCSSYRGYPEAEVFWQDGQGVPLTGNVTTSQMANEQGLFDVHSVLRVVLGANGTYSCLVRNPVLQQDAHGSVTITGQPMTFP
# T3: His-tagged mouse B7-H3 (mouse, UniProt Q8VE98 29-244, limits assumed)
# T3 construct: Bought His-tagged protein coated on the ELISA plate; also called mu B7-H3; murine B7-H3
# T3 sequence (looked up): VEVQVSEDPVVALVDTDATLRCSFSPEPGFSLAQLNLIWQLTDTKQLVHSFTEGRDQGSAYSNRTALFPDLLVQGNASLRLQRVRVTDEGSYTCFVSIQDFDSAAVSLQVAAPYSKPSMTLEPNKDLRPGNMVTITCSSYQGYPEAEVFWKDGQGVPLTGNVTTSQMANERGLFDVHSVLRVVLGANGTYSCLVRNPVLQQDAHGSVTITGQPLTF
# T4: His-tagged cynomolgus monkey B7-H3 (cynomolgus monkey)
# T4 chain: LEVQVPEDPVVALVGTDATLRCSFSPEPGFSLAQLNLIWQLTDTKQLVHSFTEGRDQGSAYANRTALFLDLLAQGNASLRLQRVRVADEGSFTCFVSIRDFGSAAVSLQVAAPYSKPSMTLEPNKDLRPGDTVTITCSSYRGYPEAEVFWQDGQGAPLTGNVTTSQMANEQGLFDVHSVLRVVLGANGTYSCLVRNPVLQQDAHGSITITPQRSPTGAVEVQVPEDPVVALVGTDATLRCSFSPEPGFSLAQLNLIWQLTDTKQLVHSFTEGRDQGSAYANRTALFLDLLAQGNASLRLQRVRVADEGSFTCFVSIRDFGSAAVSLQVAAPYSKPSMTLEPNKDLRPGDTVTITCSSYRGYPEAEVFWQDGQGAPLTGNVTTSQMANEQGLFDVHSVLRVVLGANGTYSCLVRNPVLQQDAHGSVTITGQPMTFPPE
# B1: 40511p1.1.G1 (scFv, V domains shown)
# VH: DVQLVESGGGVVRPGESLRLSCAASGFTFSSYAESWVRQAPGEGLEWVSIISGSGGNTFYADSVKGRFTISRDNSKNTLYLQMNSLRAEDTAVYYCARFAYGFFDYWGLGTLVTVSS
# VL: EIVLTQSPGTLSVSPGEGATLSCRASQTVGSKLAWYQQKPGQPPSLLIYDASTRATGIPDRFSGSGSGTDFTLTISSLQSEDFAVYYCQQYRNWPPLTFGGGTKVEIK
# notes: Tested as scFv-Fc (Expi293 supernatant)
# B2: 40579p1.B8 (scFv, V domains shown)
# VH: EVQLLESGGGLVQPGGSLRLSCAASGFTFSDYYMSWVRQAPGKGLEWVSGISMSSTIYYADSVKGRFTISRDNSKNTLYLQMNSLRAEDTAVYYCARHRSPYQYRSMDVWGQGTTVTVSS
# VL: B1 VL with V13L, G18R, T28S, G30N, T53R, D70E, R92N
# notes: as for B1
# B3: 40511p1.2.A4 (scFv, V domains shown)
# VH: B1 VH
# VL: B1 VL with G18R, P43A, S45R, G57D
# notes: as for B1
# B4: 40511p1.1.H10 (scFv, V domains shown)
# VH: DVQLVESGGGVVRPGESLRLSCAASGFTFSNYAMNWVRQAPGEGLEWVSRINYKGYNITYYADSVKGRFTISRDNSKNTLYLQMNSLRAEDTAVYYCAKSGSNSNNFFDYWGLGTLVTVSS
# VL: EIVLTQSPGNLSLSPGERATLSCRASQSVGSQLGWYQQKPGQAPRLLIYGASTRATGIPDRFSGSGSGTEFALTISSLQSEDFAVYYCQQYYDWPPLTFGGGTKVEIK
# notes: as for B1
# B5: 40579p1.D1 (scFv, V domains shown)
# VH: EVQLLESGGGLVQPGGSLRLSCAASGFTFSDYYMSWVRQAPGKGLEWVSSISISYGGTTYYADSVKGRFTISRDNSKNTLYLQMNSLRAEDTAVYYCARDRSPYQCRSMDVWGQGTTVTVSS
# VL: B4 VL with N10S, G30N, Q32D, G34A, G50A, T53S, D60A, A72T, Y92N, D93N
# notes: as for B1
# B6: 40511p1.2.G10 (scFv, V domains shown)
# VH: B4 VH
# VL: B4 VL with N10T, S28T, Q32K, G34A, G57D, A72T, Y92I, D93N, T98S
# notes: as for B1
# B7: 40511p1.1.H5 (scFv, V domains shown)
# VH: B4 VH
# VL: EIVLTQSPGTLSLSPGERATLSCRASQSIRSDLAWYQQKPGQAPRLLIYGAASRATGIPARFSGSGSGTEFTLTISSLQSGDFAVYYCQQYNSWPPLTFGGGTKVEIK
# notes: as for B1
# B8: 40579p1.C2 (scFv, V domains shown)
# VH: B5 VH with G10D, T28N, D31S, Y33W, S50G, T58N, T59A, I71V, A98G, C106Y
# VL: EIVLTQSPATLSVSPGERATFSCRASQTIGNKLAWYQQKPGQAPRLLIFSASTRATDIPDRFSGSGSGTDFTLTISSLQSEDFAVYYCQQYNNWPPLTFGGGTKVEIK
# notes: as for B1
# Molecular target: T1, B7-H3 on B7-H3-expressing CHO cells …
# Test: flow cytometry, B7-H3-expressing CHO cells, 10 ug/ml
# Outline: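 Antibodies at 10 μg/ml in PBS/1% BSA/0.01% NaN3 incubated 60 min on ice with ~1.5e5 cells; parental CHO cells as counterscreen. After washing, read by flow cytometry; values are mean fluorescent intensities (MFI).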
row,MFI @ 10 ug/ml [MFI],Binder
1,74500,B1
2,85500,B2
3,82700,B3
4,22100,B4
5,36000,B5
6,78500,B6
7,62200,B7
8,75400,B8

# Molecular target: T2, His-tagged human B7-H3
# Test: ELISA, coated His-tagged antigen, scFv-Fc 1 ug/ml
row,ELISA OD450 @ 1 ug/ml [OD450],Binder
1,2.2,B1
2,2.21,B2
3,2.06,B3
4,0.641,B4
5,0.492,B5
6,1.98,B6
7,1.71,B7
8,2.12,B8

# Molecular target: T3, His-tagged mouse B7-H3
# Test: ELISA, coated His-tagged antigen, scFv-Fc 1 ug/ml
row,ELISA OD450 @ 1 ug/ml [OD450],Binder
1,1.67,B1
2,1.98,B2
3,1.55,B3
4,0.138,B4
5,0.283,B5
6,1.45,B6
7,0.758,B7
8,1.82,B8

# Molecular target: T4, His-tagged cynomolgus monkey B7-H3
# Test: ELISA, coated His-tagged antigen, scFv-Fc 1 ug/ml
row,ELISA OD450 @ 1 ug/ml [OD450],Binder
1,2.28,B1
2,2.08,B2
3,2.3,B3
4,2.03,B4
5,1.33,B5
6,2.37,B6
7,2.22,B7
8,2.18,B8

# Molecular target: T2, His-tagged human B7-H3
# Test: ELISA OD450 on hu B7-H3 over OD450 on mu B7-H3
row,hu:mu ratio,Binder
1,1.32,B1
2,1.12,B2
3,1.33,B3
4,4.64,B4
5,1.74,B5
6,1.37,B6
7,2.25,B7
8,1.16,B8
